Results as given in publication PMC4975007.

Target: Dbp2 (MBP-TEV-Dbp2 construct) (Saccharomyces cerevisiae, UniProt P24783 1-546)
Experiment: fluorescence anisotropy

Chain of Dbp2 (MBP-TEV-Dbp2 construct) (P24783 whole entry): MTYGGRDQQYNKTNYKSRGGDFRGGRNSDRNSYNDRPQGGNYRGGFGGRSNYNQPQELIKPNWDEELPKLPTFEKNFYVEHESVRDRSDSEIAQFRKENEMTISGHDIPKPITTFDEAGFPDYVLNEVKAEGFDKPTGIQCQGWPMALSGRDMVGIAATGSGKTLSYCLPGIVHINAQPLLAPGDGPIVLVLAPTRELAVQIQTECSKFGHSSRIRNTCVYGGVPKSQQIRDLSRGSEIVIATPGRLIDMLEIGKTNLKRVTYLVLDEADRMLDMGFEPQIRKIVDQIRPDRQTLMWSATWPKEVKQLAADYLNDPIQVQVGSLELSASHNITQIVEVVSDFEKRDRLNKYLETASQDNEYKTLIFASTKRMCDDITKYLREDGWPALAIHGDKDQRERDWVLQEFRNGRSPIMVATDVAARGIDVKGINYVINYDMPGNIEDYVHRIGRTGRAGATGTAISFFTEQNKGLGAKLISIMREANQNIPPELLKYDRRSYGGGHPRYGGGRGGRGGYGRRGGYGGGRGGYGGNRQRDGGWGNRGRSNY

AGCACCGUAAAGACGC (ssRNA) [16 nt ssRNA, 6-FAM] gave a Kd of 0.038 µM.
